Measurements reported in patent US20260124223A1, “CANCER IMMUNOTHERAPIES” (Northwestern University, priority 2022, published 2026).

How the values were obtained:
[1] = target: human FcγRIIIA V158 protein (his-tagged) (human) (UniProt P08637); assay: SPR (Biacore T200), his-tagged receptor captured on anti-His CM5 chip, antibody injected
[2] = target: human FcγRIIB protein (his-tagged) (human) (UniProt P31994); assay: as above
[3] = target: human FcγRIIIA F158 protein (his-tagged) (human) (UniProt P08637); assay: as above
[4] = target: mouse FcγRIIB protein (his-tagged) (mouse) (UniProt P08101); assay: as above
[5] = target: mouse FcγRIV protein (his-tagged) (mouse); assay: as above
[6] = target: mouse FcγRIV protein (his-tagged) (mouse); assay: ratio of SPR binding to mouse FcγRIV against inhibitory mouse FcγRIIB

Chain of mouse FcγRIV protein (his-tagged) (mouse) (A0A0B4 entry or part of it limits assumed): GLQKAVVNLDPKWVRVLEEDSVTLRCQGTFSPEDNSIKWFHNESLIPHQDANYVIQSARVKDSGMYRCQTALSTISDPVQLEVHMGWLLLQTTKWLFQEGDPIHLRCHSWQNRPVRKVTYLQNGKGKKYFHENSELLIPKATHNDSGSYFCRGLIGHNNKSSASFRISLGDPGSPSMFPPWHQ
Chain of mouse FcγRIIB protein (his-tagged) (mouse) (P08101 30-210 limits assumed): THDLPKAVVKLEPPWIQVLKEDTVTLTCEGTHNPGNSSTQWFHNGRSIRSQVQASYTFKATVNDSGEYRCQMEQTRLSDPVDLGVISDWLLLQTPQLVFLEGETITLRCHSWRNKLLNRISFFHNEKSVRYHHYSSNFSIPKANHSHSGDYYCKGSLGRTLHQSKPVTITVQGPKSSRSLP
Chain of human FcγRIIB protein (his-tagged) (human) (P31994 43-217 limits assumed): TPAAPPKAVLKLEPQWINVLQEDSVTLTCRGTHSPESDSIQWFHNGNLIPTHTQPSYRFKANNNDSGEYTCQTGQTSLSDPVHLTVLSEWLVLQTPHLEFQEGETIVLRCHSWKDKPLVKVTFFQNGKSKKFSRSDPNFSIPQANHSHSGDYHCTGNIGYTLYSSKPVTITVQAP
Chain of human FcγRIIIA F158 protein (his-tagged) (human) (P08637 17-208 limits assumed): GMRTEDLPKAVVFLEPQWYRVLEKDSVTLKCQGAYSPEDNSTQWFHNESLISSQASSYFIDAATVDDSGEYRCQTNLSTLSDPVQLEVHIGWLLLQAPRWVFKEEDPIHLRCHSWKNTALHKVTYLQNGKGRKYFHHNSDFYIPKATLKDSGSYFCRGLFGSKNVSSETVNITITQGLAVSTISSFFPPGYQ
Chain of human FcγRIIIA V158 protein (his-tagged) (human) (P08637 17-208 F176V limits assumed): as the sequence (P08637 17-208 limits assumed) above, with F160V counted along it

Substance | Kd [1] [nM] | Kd [2] [nM] | Kd [3] [nM] | Kd [4] [nM] | Kd [5] [nM] | A/I ratio (IV/IIB) [6]
Fc-enhanced anti-human CTLA-4 antibody (hIgG1.DLE) (from UniProt P01857 1-330) | 2.76 | 3230 | 2.83 |  |  | 
Fc-enhanced mouse reactive anti-CTLA4 antibody (clone 9D9, mIgG2b.DLE) (from UniProt P01867 1-335) |  |  |  | 7110 | 1.7 | 4180
anti-mouse CTLA-4 antibody, clone 9D9, mouse IgG2b (unmodified) |  |  |  | 5800 | 61.3 | 95
